System: Escherichia coli TOP10
Experiment: shrunken log2 fold change of peptide-encoding DNA abundance (4.5 h post-induction vs induction); higher = less antimicrobial activity (less host growth inhibition)
Conditions: time post-induction: 4.5 h; library: site-saturation at positions 5, 18, 19, 20
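Also: peptides expressed intracellularly from a pBAD plasmid library in pooled LB shake-flask culture, induced with 0.3% L-arabinose, DNA abundance read by NGS, three biological replicates, DESeq2 with apeglm shrinkage.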

Row | Sequence | shrunken log2 fold change
1 | RRIRRRPPRLPRPRPRPVMPPRP | 0.338
2 | RRIRVRPPRLPRPRPRPKNFPRP | 0.0772
3 | RRIRPRPPRLPRPRPRPCVGPRP | 0.267
4 | RRIRFRPPRLPRPRPRPDVMPRP | -0.0908
5 | RRIRQRPPRLPRPRPRPRTGPRP | 0.443
6 | RRIRLRPPRLPRPRPRPSHMPRP | -0.228
7 | RRIRSRPPRLPRPRPRPETNPRP | -0.0626
8 | RRIRLRPPRLPRPRPRPSMMPRP | -0.358
9 | RRIRKRPPRLPRPRPRPDSYPRP | -0.00206
10 | RRIRGRPPRLPRPRPRPDWKPRP | 0.000125
11 | RRIRSRPPRLPRPRPRPAETPRP | 0.114
12 | RRIRSRPPRLPRPRPRPWEHPRP | 0.089
13 | RRIRWRPPRLPRPRPRPMNIPRP | -0.541
14 | RRIRPRPPRLPRPRPRPSPWPRP | 0.0349
15 | RRIRTRPPRLPRPRPRPQHYPRP | -0.691
16 | RRIRHRPPRLPRPRPRPSFWPRP | 0.00023
17 | RRIRGRPPRLPRPRPRPKECPRP | 0.0235
18 | RRIRRRPPRLPRPRPRPTKEPRP | -0.0782
19 | RRIRGRPPRLPRPRPRPIAKPRP | 0.245
20 | RRIRDRPPRLPRPRPRPINIPRP | -0.282
21 | RRIRSRPPRLPRPRPRPRKLPRP | 0.316
22 | RRIRDRPPRLPRPRPRPQVNPRP | -0.182
23 | RRIRVRPPRLPRPRPRPKYGPRP | -0.141
24 | RRIRFRPPRLPRPRPRPKTKPRP | 0.0287
25 | RRIRRRPPRLPRPRPRPARHPRP | 0.447

Row | Sequence | shrunken log2 fold change
26 | RRIRCRPPRLPRPRPRPNTWPRP | -0.539
27 | RRIRDRPPRLPRPRPRPVGYPRP | 0.0934
28 | RRIRVRPPRLPRPRPRPDGVPRP | -0.0176
29 | RRIRGRPPRLPRPRPRPSYSPRP | -0.0047
30 | RRIRSRPPRLPRPRPRPNNHPRP | -0.276
31 | RRIRIRPPRLPRPRPRPAFFPRP | 0.0559
32 | RRIRYRPPRLPRPRPRPVKFPRP | -0.133
33 | RRIRVRPPRLPRPRPRPRGNPRP | 0.378
34 | RRIRARPPRLPRPRPRPPEAPRP | 0.699
35 | RRIRCRPPRLPRPRPRPCDMPRP | -0.277
36 | RRIRKRPPRLPRPRPRPCYRPRP | -0.0703
37 | RRIRQRPPRLPRPRPRPTWWPRP | 0.314
38 | RRIRPRPPRLPRPRPRPDTFPRP | -0.0596
39 | RRIRKRPPRLPRPRPRPFEPPRP | 0.00335
40 | RRIRYRPPRLPRPRPRPEQGPRP | -0.00197
41 | RRIRIRPPRLPRPRPRPYCWPRP | -0.185
42 | RRIRARPPRLPRPRPRPVYWPRP | 0.141
43 | RRIRWRPPRLPRPRPRPHFVPRP | -0.438
44 | RRIRLRPPRLPRPRPRPHFSPRP | -0.189
45 | RRIRRRPPRLPRPRPRPPCRPRP | 1.09
46 | RRIRERPPRLPRPRPRPDDCPRP | -0.0573
47 | RRIRYRPPRLPRPRPRPTQHPRP | -0.309
48 | RRIRERPPRLPRPRPRPHTSPRP | -0.122
49 | RRIRIRPPRLPRPRPRPKNTPRP | -0.695
50 | RRIRHRPPRLPRPRPRPKWPPRP | 0.0116

Row | Sequence | shrunken log2 fold change
51 | RRIRMRPPRLPRPRPRPQKNPRP | 0.628
52 | RRIRHRPPRLPRPRPRPSMAPRP | 0.231
53 | RRIRLRPPRLPRPRPRPHHMPRP | -0.353
54 | RRIRLRPPRLPRPRPRPNCCPRP | -0.0382
55 | RRIRGRPPRLPRPRPRPNIFPRP | 0.398
56 | RRIRCRPPRLPRPRPRPLQFPRP | -0.0752
57 | RRIRQRPPRLPRPRPRPNGNPRP | -0.405
58 | RRIRARPPRLPRPRPRPKLGPRP | 0.023
59 | RRIRSRPPRLPRPRPRPCDIPRP | -0.0321
60 | RRIRYRPPRLPRPRPRPNTQPRP | -0.17
61 | RRIRIRPPRLPRPRPRPWQFPRP | -0.243
62 | RRIRLRPPRLPRPRPRPGTPPRP | 0.0973
63 | RRIRTRPPRLPRPRPRPVMMPRP | -0.199
64 | RRIRTRPPRLPRPRPRPFGQPRP | -0.0675
65 | RRIRRRPPRLPRPRPRPDTDPRP | -0.108
66 | RRIRERPPRLPRPRPRPLPVPRP | -0.0551
67 | RRIRNRPPRLPRPRPRPCEAPRP | -0.18
68 | RRIRRRPPRLPRPRPRPPQAPRP | 1.19
69 | RRIRGRPPRLPRPRPRPYKIPRP | -0.618
70 | RRIRHRPPRLPRPRPRPKLQPRP | 0.0439
71 | RRIRTRPPRLPRPRPRPARIPRP | -0.0205
72 | RRIRFRPPRLPRPRPRPYSYPRP | -0.268
73 | RRIRCRPPRLPRPRPRPVNQPRP | -0.174
74 | RRIRHRPPRLPRPRPRPKYLPRP | -0.0216
75 | RRIRNRPPRLPRPRPRPGYKPRP | 0.0376

Row | Sequence | shrunken log2 fold change
76 | RRIRRRPPRLPRPRPRPDMQPRP | 0.272
77 | RRIRKRPPRLPRPRPRPVHEPRP | 0.325
78 | RRIRNRPPRLPRPRPRPHMTPRP | 0.0432
79 | RRIRQRPPRLPRPRPRPQFNPRP | -0.6
80 | RRIRIRPPRLPRPRPRPLTPPRP | -0.284
81 | RRIRQRPPRLPRPRPRPTDHPRP | 0.0174
82 | RRIRSRPPRLPRPRPRPWPPPRP | 0.51
83 | RRIRVRPPRLPRPRPRPIRAPRP | -0.109
84 | RRIRNRPPRLPRPRPRPQGMPRP | -0.0261
85 | RRIRKRPPRLPRPRPRPLTWPRP | 0.13
86 | RRIRLRPPRLPRPRPRPWAAPRP | 0.15
87 | RRIRSRPPRLPRPRPRPGWGPRP | 0.291
88 | RRIRRRPPRLPRPRPRPWDLPRP | -0.04
89 | RRIRERPPRLPRPRPRPNDCPRP | -0.0231
90 | RRIRDRPPRLPRPRPRPPPGPRP | 0.774
91 | RRIRNRPPRLPRPRPRPMRHPRP | -0.18
92 | RRIRIRPPRLPRPRPRPAKRPRP | 0.0281
93 | RRIRNRPPRLPRPRPRPDDEPRP | -0.00101
94 | RRIRERPPRLPRPRPRPNIKPRP | -0.788
95 | RRIRPRPPRLPRPRPRPEPLPRP | 0.0833
96 | RRIRNRPPRLPRPRPRPVIFPRP | -0.565
97 | RRIRHRPPRLPRPRPRPMGMPRP | -0.254
98 | RRIRTRPPRLPRPRPRPMMVPRP | -0.18
99 | RRIRQRPPRLPRPRPRPCEMPRP | -0.00121
100 | RRIRPRPPRLPRPRPRPKMKPRP | 1.05

Row | Sequence | shrunken log2 fold change
101 | RRIRTRPPRLPRPRPRPANTPRP | -0.181
102 | RRIRQRPPRLPRPRPRPRQYPRP | -0.163
103 | RRIRMRPPRLPRPRPRPNVTPRP | 0.0238
104 | RRIRGRPPRLPRPRPRPLWWPRP | 0.458
105 | RRIRLRPPRLPRPRPRPLEQPRP | 0.0155
106 | RRIRIRPPRLPRPRPRPVICPRP | -0.063
107 | RRIRLRPPRLPRPRPRPVPRPRP | 0.352
108 | RRIRIRPPRLPRPRPRPSKDPRP | -1.02
109 | RRIRIRPPRLPRPRPRPLLEPRP | -0.437
110 | RRIRNRPPRLPRPRPRPRNQPRP | -0.182
111 | RRIRTRPPRLPRPRPRPQMNPRP | -0.345
112 | RRIRVRPPRLPRPRPRPASHPRP | 0.0857
113 | RRIRFRPPRLPRPRPRPNCCPRP | 0.0101
114 | RRIRKRPPRLPRPRPRPDKVPRP | 0.116
115 | RRIRGRPPRLPRPRPRPDPPPRP | 1.14
116 | RRIRSRPPRLPRPRPRPLLVPRP | 0.0795
117 | RRIRSRPPRLPRPRPRPPWNPRP | 0.0621
118 | RRIRIRPPRLPRPRPRPWSMPRP | -0.00809
119 | RRIRYRPPRLPRPRPRPLQFPRP | -0.537
120 | RRIRTRPPRLPRPRPRPAHWPRP | 0.882
121 | RRIRKRPPRLPRPRPRPLLCPRP | 0.347
122 | RRIRNRPPRLPRPRPRPQHMPRP | -0.605
123 | RRIRERPPRLPRPRPRPAVVPRP | -0.171
124 | RRIRMRPPRLPRPRPRPTDCPRP | -0.0353
125 | RRIRNRPPRLPRPRPRPQWVPRP | 0.00681

Row | Sequence | shrunken log2 fold change
126 | RRIRCRPPRLPRPRPRPHYWPRP | -0.783
127 | RRIRMRPPRLPRPRPRPCIQPRP | -0.214
128 | RRIRLRPPRLPRPRPRPTPDPRP | 0.626
129 | RRIRSRPPRLPRPRPRPTRVPRP | 0.872
130 | RRIRKRPPRLPRPRPRPCVAPRP | 0.223
131 | RRIRARPPRLPRPRPRPTMRPRP | 0.976
132 | RRIRDRPPRLPRPRPRPSKGPRP | -0.0731
133 | RRIRIRPPRLPRPRPRPMINPRP | -0.714
134 | RRIRARPPRLPRPRPRPIRLPRP | -0.0928
135 | RRIRARPPRLPRPRPRPMDGPRP | 0.211
136 | RRIRPRPPRLPRPRPRPGQCPRP | -0.0386
137 | RRIRMRPPRLPRPRPRPHEHPRP | 0.301
138 | RRIRCRPPRLPRPRPRPELAPRP | 0.403
139 | RRIRRRPPRLPRPRPRPASIPRP | -0.0206
140 | RRIRARPPRLPRPRPRPSWYPRP | -0.25
141 | RRIRTRPPRLPRPRPRPHPPPRP | 0.271
142 | RRIRQRPPRLPRPRPRPERGPRP | 0.105
143 | RRIRNRPPRLPRPRPRPDSHPRP | -0.0854
144 | RRIRNRPPRLPRPRPRPMMVPRP | -0.194
145 | RRIRRRPPRLPRPRPRPMEAPRP | 0.0829
146 | RRIRNRPPRLPRPRPRPFPPPRP | -0.32
147 | RRIRQRPPRLPRPRPRPWAVPRP | 0.066
148 | RRIRWRPPRLPRPRPRPNPKPRP | 0.0369
149 | RRIRDRPPRLPRPRPRPIDYPRP | -0.0396
150 | RRIRTRPPRLPRPRPRPHLPPRP | 0.236
